Reference: publication PMC6661505

How the values were obtained:
Assay in all cases: bead flow cytometry
mouse FGFR3c-Fc = mouse FGFR3c-Fc (mouse, UniProt Q61851 21-369)
human FGFR2c-His = human FGFR2c-His (human, UniProt P21802 22-377)
human FGFR1c-His = human FGFR1c-His (human, UniProt P11362 22-376)
mouse FGFR2c-Fc = mouse FGFR2c-Fc (mouse, UniProt P21803 22-377)
mouse FGFR1c-Fc = mouse FGFR1c-Fc (mouse, UniProt P16092 22-376)
human FGFR3b-Fc = human FGFR3b-Fc (human, UniProt P22607-2 23-377)
human FGFR3c-Fc = human FGFR3c-Fc (human, UniProt P22607 23-375)
mouse FGFR3b-Fc = mouse FGFR3b-Fc (mouse, UniProt Q61851-2 21-371)

mouse FGFR2c-Fc, sequence (P21803 22-377): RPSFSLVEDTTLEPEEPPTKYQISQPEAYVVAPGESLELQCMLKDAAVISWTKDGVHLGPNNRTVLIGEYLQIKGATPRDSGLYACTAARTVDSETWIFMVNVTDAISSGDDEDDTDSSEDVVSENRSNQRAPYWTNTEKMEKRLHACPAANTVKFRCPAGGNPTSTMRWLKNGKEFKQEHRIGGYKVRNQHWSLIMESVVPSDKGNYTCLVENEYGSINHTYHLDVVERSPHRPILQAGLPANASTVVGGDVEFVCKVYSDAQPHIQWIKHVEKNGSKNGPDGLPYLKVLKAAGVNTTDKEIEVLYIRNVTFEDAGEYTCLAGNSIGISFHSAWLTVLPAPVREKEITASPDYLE
human FGFR2c-His, sequence (P21802 22-377): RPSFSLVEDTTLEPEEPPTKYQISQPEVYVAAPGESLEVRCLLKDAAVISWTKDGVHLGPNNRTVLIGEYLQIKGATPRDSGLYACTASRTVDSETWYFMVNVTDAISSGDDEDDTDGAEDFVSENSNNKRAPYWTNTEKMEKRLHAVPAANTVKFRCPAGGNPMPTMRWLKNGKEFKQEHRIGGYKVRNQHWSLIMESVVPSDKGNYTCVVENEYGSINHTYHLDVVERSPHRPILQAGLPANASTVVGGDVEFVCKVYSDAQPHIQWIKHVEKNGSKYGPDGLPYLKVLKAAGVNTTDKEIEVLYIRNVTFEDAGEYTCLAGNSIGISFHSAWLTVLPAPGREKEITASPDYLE
human FGFR1c-His, sequence (P11362 22-376): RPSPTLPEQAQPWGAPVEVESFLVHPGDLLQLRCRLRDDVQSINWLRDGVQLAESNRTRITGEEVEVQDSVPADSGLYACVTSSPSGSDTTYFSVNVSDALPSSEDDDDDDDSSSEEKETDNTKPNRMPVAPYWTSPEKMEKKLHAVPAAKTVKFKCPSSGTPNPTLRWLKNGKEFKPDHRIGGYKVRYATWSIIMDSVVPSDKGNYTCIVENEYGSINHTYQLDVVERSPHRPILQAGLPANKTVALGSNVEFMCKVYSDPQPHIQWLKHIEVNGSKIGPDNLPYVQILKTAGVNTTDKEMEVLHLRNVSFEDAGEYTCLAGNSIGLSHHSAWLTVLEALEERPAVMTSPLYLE
mouse FGFR1c-Fc, sequence (P16092 22-376): as the sequence (P11362 22-376) above, with S3A, A15V, F22L, A53V, Q68R, V71I, M128R counted along it

## GCCGAUGGUUUUGUGGCCGUUUGAGGUUCCUACGGC (structured_RNA, 2'-fluoro C and U; 3' inverted dT (not in string)) [iR3]
Mouse FGFR3c-Fc
  Kd: 36.6 ± 7.1 nM
Human FGFR2c-His
  binding result: no binding
Human FGFR1c-His
  binding result: no binding
Mouse FGFR2c-Fc
  binding result: no binding
Mouse FGFR1c-Fc
  binding result: no binding
Human FGFR3b-Fc
  Kd: ~48 nM
Human FGFR3c-Fc
  Kd: 55.5 ± 8.4 nM
Mouse FGFR3b-Fc
  Kd: ~62 nM
